This passage reports Kd, fold weaker self-association (dimer-tetramer equilibrium) than Dmp53, Drp53 and ΔNp73β and stoichiometry N results from publication PMC2807882.

Usually Kd stands for the equilibrium constant for the complex coming apart. A higher Kd goes with a looser complex. By stoichiometry N is commonly meant a count of units in the complex or per binding partner.

Assay [1] concerns the target T1, Mmp53 (mouse p53) with C-terminal FlAsH tag, labelled with FlAsH (mouse (Mus musculus)), P02340.
T1 chain: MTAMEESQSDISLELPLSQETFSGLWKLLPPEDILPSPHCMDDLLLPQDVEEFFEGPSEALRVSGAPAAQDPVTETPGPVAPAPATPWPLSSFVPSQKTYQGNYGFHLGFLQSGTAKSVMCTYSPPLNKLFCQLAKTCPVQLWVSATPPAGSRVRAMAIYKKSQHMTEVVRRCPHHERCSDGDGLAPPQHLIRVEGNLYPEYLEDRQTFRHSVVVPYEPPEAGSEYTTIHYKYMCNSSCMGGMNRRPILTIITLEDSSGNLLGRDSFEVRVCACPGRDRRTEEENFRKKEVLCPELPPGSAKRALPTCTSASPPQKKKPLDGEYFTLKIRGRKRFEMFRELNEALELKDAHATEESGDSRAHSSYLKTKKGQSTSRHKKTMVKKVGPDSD
As to the kind of experiment: dimer-tetramer equilibrium. Conditions: natural protein, chains chain, FlAsH (from FlAsH-EDT2, Lumio Green) on the C-terminal CCPGCC tetra-cysteine tag, remark: other sources report otherwise.

For assay [2], the target named is T1, Mmp53 (mouse p53) with C-terminal FlAsH …. As to the kind of experiment: AUC; sedimentation velocity with fluorescence detection, FlAsH-labelled protein at 5-500 nM; 150 mM NaCl, 25 mM phosphate pH 7.2, 10% glycerol, BSA 0.2 mg/mL, 1 mM beta-mercaptoethanol, 10°C; tetramer to dimers; Kd expressed in concentration of monomer. Conditions: remark: other sources report otherwise.

Assay [3] deals with T2, Mus musculus p53, full length, with C-terminal FlAsH tag, FlAsH-labelled (Mus musculus), P02340.
T2 chain: T1 chain
As to the kind of experiment: AUC; sedimentation velocity with fluorescence detection, FlAsH-labelled protein at 5-500 nM (monomer); 150 mM NaCl, 25 mM phosphate pH 7.2, 10% glycerol, BSA 0.2 mg/mL, 1 mM β-mercaptoethanol, 10°C; tetramer to dimers; Kd expressed in concentration of monomer. Conditions: remark: other sources report otherwise.

B1: Mmp53 (mouse p53) with C-terminal FlAsH tag, labelled with FlAsH, P02340 1-390 (natural protein)
chain: T1 chain
In assay [1], B1 gave a dissociation constant (Kd) of 17.2 nM. In assay [2], this molecule yielded a fold weaker self-association (dimer-tetramer equilibrium) than Dmp53, Drp53 and ΔNp73β of 10 fold; a stoichiometry N of 4.

B2: Mus musculus p53, full length, with C-terminal FlAsH tag, FlAsH-labelled, P02340 1-390 (natural protein)
chain: T1 chain
modifications: here or on the partner: FlAsH (from FlAsH-EDT2, an arsenic derivative of fluorescein) on the C-terminal CCPGCC tetra-cysteine tag; FlAsH (from FlAsH-EDT2, an arsenic derivative of fluorescein) on the C-terminal CCPGCC tetra-cysteine tag
In assay [3], B2 registered a Kd of 17.2 nM.
